Results reported in PMC12400406 (Organic Letters, 2025).

How the values were obtained:
CmnA-A1–CmnN = target: T1, CmnA-A1–CmnN (Saccharothrix mutabilis, UniProt A6YEH2); test: in vitro loading onto CmnI-T, intact protein Q-TOF MS; adenylation activity assay; type: biochemical; conditions: ATP, Mg2+; holo-CmnI-T as acceptor
T1 construct: first adenylation domain (module 1) of CmnA, co-expressed with MbtH-like protein CmnN in E. coli; with MbtH-like protein CmnN
T1 sequence (A6YEH2 450-890 limits assumed): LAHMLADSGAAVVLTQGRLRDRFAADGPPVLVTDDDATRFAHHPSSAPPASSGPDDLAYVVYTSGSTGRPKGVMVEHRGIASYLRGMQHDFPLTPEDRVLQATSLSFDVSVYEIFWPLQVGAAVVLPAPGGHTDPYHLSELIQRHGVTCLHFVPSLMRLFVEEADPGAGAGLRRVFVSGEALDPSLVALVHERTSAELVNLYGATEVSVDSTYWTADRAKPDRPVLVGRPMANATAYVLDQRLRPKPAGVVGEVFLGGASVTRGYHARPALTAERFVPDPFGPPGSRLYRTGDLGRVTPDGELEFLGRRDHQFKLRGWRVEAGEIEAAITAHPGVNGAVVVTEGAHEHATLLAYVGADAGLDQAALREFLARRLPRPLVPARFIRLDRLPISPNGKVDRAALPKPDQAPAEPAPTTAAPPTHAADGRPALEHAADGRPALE
T1 sequence (A6YEI5 1-62 partner): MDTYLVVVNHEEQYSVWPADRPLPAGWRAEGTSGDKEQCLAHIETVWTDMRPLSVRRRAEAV

CmnA-A2-CmnN = target: T2, CmnA-A2-CmnN (Saccharothrix mutabilis, UniProt A6YEH2); test: enzyme activity assay (amino acid activation); type: biochemical
T2 construct: second adenylation domain of CmnA, with MbtH-like protein CmnN, recombinant; with MbtH-like protein CmnN
T2 sequence (A6YEH2 1420-1895 limits assumed): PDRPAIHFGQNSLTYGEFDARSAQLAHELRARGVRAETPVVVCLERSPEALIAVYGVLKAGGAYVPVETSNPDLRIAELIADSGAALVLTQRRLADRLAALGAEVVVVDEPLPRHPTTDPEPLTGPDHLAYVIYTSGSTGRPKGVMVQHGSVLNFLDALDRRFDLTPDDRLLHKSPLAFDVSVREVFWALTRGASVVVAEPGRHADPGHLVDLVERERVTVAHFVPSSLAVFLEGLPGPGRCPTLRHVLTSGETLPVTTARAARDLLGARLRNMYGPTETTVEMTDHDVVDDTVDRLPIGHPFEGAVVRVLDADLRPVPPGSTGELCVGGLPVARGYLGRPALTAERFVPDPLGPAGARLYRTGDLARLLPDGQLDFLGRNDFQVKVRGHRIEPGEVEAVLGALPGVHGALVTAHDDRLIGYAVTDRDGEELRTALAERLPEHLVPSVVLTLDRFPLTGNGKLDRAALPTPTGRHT
T2 sequence (A6YEI5 1-62 partner): T1 sequence (A6YEI5 1-62 partner)

CmnA-A1–CmnN complex = CmnA-A1–CmnN complex (Saccharothrix mutabilis subsp. capreolus, UniProt A6YEI5 1-62, An added initiator Met precedes His364 and is left out. The His-tag on CmnN is thrombin-cleaved. A6YEI5 is taken as CmnN because it is MbtH-like.); test: BLI; biolayer interferometry; which partner was immobilised and the conditions are in the Supporting Information (not shown); conditions: both partners purified
CmnA-A2-CmnN complex = CmnA-A2-CmnN complex (Saccharothrix mutabilis subsp. capreolus, UniProt A6YEI5 1-62, The printed limits Leu1832-Gly1896 give only 65 residues, which does not fit the stated 55.5 kDa. They are read as a digit transposition of Leu1382-Gly1896 (515 residues). An added initiator Met is le); test: as above; conditions: both partners purified

For `NC[C@H](N)C(=O)O` [L-Dap], the “in vitro loading onto CmnI-T, intact protein Q-TOF MS; adenylation activity assa” value (CmnA-A1–CmnN) was “CmnA-A1 specifically recognizes and activates the nonproteinogenic amino acid L-Dap”.

`C[C@H](N)C(=O)O` [L-Ala] was tested, and the “enzyme activity assay (amino acid activation)” value (CmnA-A2-CmnN) was “CmnA-A2 is capable of activating both L-Ser and L-Ala”.

`N[C@@H](CO)C(=O)O` [L-Ser] was tested, and the “enzyme activity assay (amino acid activation)” value (CmnA-A2-CmnN) was “CmnA-A2 is capable of activating both L-Ser and L-Ala”.

B1: CmnI (enzyme, Saccharothrix mutabilis subsp. capreolus, UniProt A6YEI0 1-548, looked up)
chain: MTTETPATTGAPATTGAPAPPGRAEIVAAVLPVFAEVLDAPDLTPDSDFFVHGGNSLLAIRVAGRVGRRLGRQVPPAGVLKHPTPDLLAAHLEEEFRGGGAPPIPAPRAGAEADRRPSTAQERVWLLHQLDPDRLDHLVTVALDVAGTVDPAAFTAAWTAVVRRHEALRSRFVKADDDRVAVVVDAEAAPEISVLDLARFPAPVRDRLAEERVRLLRTTPIRLDTGPLARFALLRLADRRYRIELAVHHIVCDGWSLDTLLADFLDAYGRALAGRSPALPPPAVGFADYVAWERDVESSRWPDMAVRLARRFADRPADLPLPVDPVDVPAHEDGDDVTVHAPPGLAAAVERARTSFGHTALTFHLTALGVLLARITGVDDLVVAVPVAGRAQTEHEDLVGLFVNTALARVRLGGTSDVRVLLERNRDEVDELVDCQTFPFDRLVDLLGARRAGTRVPLARVSLAVQNFDDPGTPAPELGFTWQFRDPPERQSKFDLAFTVSDTDGLRLTVTYRPSLFRRATVAAWAGQYLVALEHVVRGVADPEGSAR
notes: CmnI, A domain-less NRPS module 3 (T-C didomain) of capreomycin biosynthesis, Saccharothrix mutabilis subsp. capreolus; calculated molecular weight of the apo-form construct 61 484.72 Da; also called A domain-less NRPS module CmnI; source: purified
B1 gave a Kd (CmnA-A1–CmnN complex) of 1.85 µM, a koff (CmnA-A1–CmnN complex) of 0.000477 s⁻¹ and a kon (CmnA-A1–CmnN complex) of 258 M⁻¹ s⁻¹. It also gave a Kd (CmnA-A2-CmnN complex) of 4.93 µM, a koff (CmnA-A2-CmnN complex) of 0.000728 s⁻¹ and a kon (CmnA-A2-CmnN complex) of 148 M⁻¹ s⁻¹.
